Earlier results on one substance are cited in PMC3218432.

Usually pKa stands for the pH at which an ionisable group is half protonated.

The target of this series is Asp85 (UniProt position 98, WARYADWLFTT).

Consider “Bacteriorhodopsin (Halobacterium salinarum (not stated in the article; described as archaeal))”, for which the pKa is given as 2.3.
